The source of these data is patent US20260226161A1 (EXELIXIS, published 2026).

The target in assay [1] is T1, biotinylated human NKG2C/CD94 heterodimer (extracellular domains, Fc fusions) (human, UniProt P26717 94-231; Q13241 32-179, biotinylated).
T1 construct: not shown: N-terminal Fc (hole)
Description: BLI (Octet), bivalent. As to the method: (§1) A total of 58 binders formatted as IgG antibodies from phage display as described in Example 1 were further tested for binding.
(§2) The antibodies were evaluated for binding to (1) human NKG2A, (2) human NKG2C, and (3) cyno NKG2A. Bivalent interaction of binders to biotinylated human NKG2A (see Example 1), biotinylated human NKG2C/CD94 heterodimer, or biotinylated cyno NKG2A/CD94 heterodimer immobilized on a streptavidin biosensor was monitored using Octet (Pall ForteBio) instrument. For these assays, human NKG2C/CD94 and cyno NKG2A/CD94 were prepared using the procedure as described in Example 1. Similarly, the extracellular domain of human NKG2C was expressed and purified from HEK293 cells as heterodimer with CD94 as Fc fusions. The extracellular domain of NKG2C used for selection campaigns encompassed amino acid sequence Ile94-Leu231 (Accession No. P26717-1; SEQ ID NO: 75). The gene encoding CD94 (Accession No. Q13241-1, SEQ ID NO:76), Lys33-Ile159 was synthesized from IDT and cloned into mammalian expression vector as an N-terminal Fc (hole) fusion. Plasmids encoding NKG2C-Fc fusion and CD94-Fc fusion were co-transfected into HEK293T cells using standard procedures. NKG2C/CD94 heterodimer was purified from cell supernatant using Protein A resins. Similar approach was used to obtain Cynomolgus NKG2A protein. Specifically, extracellular domain of Cynomolgus NKG2A contained amino acid Pro 94-Leu 233. […] Extracellular domain of Cynomolgus CD94 contained amino acid residues Lys 33-Ile 179 (Accession No. Q68VD4-1; SEQ ID NO: 78).
On the technique in general: BLI is a label-free optical method that tracks binding on a fibre tip over time.

For assay [2], the target named is T2, biotinylated cyno NKG2A/CD94 heterodimer (extracellular domains) (cynomolgus, UniProt Q9MZJ3 94-233; Q9MZK9 32-179, biotinylated).
T2 construct: also called Cynomolgus NKG2A protein; not shown: fusion partner/tags ('similar approach' to the human proteins); fusion partner ('similar approach')
T2 sequence (Q9MZJ3 other isoform, or with tags, fused parts or gaps, chain 1 of 2): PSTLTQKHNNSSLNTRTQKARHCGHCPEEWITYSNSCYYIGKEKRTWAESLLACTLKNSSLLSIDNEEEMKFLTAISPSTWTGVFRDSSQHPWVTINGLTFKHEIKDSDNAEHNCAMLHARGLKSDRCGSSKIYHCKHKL
T2 sequence (Q9MZK9 32-179, chain 2 of 2): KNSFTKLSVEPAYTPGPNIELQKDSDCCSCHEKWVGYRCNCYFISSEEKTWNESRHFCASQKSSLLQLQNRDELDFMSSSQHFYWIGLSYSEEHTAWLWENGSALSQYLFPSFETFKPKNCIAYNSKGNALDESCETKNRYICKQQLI
In words: BLI (Octet), bivalent. As to the method:
as §1, §2

In assay [3] the target is T3, NKG2A expressed on KHYG-1 cells (endogenous) (human, UniProt P26715 1-233; Q13241 1-179).
T3 construct: whole, on cells; Surface NKG2A copy number of approximately 10-20K; also called KHYG-1 cells expressing endogenous NKG2A; NKG2A-expressing cells
T3 sequence (P26715 whole entry, chain 1 of 2): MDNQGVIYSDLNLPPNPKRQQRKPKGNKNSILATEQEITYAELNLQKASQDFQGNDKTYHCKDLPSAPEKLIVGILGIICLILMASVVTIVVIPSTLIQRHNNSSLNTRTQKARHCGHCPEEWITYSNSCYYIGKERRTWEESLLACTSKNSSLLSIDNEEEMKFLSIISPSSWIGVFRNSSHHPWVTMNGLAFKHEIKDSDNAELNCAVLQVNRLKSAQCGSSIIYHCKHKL
T3 sequence (Q13241 whole entry, chain 2 of 2): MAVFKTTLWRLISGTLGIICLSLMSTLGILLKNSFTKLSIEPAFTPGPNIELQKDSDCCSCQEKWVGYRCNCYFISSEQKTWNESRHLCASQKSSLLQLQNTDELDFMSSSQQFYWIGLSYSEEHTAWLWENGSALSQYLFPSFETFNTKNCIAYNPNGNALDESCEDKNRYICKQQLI
Description: flow cytometry on KHYG-1 cells expressing endogenous NKG2A. On the procedure:
Antibodies that were selected for binding to NKG2A, for example, such as those described in Examples 1 and 2, were evaluated for binding to cells that express NKG2A.
Cells were harvested at 70-90% confluence on the day of the assay. Cells were collected by centrifugation at 200×g for 5 minutes and media was removed. Cells were resuspended at 2×10⁶ cells per mL in cold PBS. […] 50 μL per well of the antibody dilution was plated in a 96 well V-bottom plate (Costar 3897). 50 μL per well of cell suspension was added. Plates were placed at 4° C. for 45-60 minutes.

Assay [4] deals with T4, PD-L1 expressed on cells (UniProt Q9NZQ7 19-290, limits assumed). In words: cell-based or functional assay.
T4 sequence (Q9NZQ7 19-290 limits assumed): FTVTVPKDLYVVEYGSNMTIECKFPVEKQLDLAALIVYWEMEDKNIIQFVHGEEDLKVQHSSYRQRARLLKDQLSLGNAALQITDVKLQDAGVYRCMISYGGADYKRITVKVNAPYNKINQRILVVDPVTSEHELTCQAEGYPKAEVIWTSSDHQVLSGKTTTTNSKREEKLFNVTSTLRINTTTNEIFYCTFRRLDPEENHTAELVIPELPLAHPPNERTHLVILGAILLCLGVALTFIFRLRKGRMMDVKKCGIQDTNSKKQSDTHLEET
The target of assay [5] is T4, PD-L1 expressed on cells. In words: flow cytometry on MC/CAR cells expressing PD-L1. As to the method: (§3) Cells were collected by centrifugation at 400×g for 7 minutes and primary antibody was removed. 50 μL per well of AF488 goat anti human IgG Fab (Jackson Immuno Research 109-547-003) at 1:100 dilution was added. Plates were placed at 4° C. for 30 minutes.
(§4) Cells were collected by centrifugation at 400×g for 7 minutes and secondary antibody was removed. Cells were resuspended in 50 μL per well of PBS and analyzed by flow cytometry. Binding curves were calculated using the mean fluorescence intensity (MFI) of the FITC fluorescence signal on the cells. Bispecific antibody binding was evaluated in KHYG-1 cells expressing endogenous NKG2A and in MC/CAR cells expressing PD-L1. Cells were harvested and assayed for binding as described above.
A general note: In flow cytometry, cells or beads pass a laser one at a time.

Assay [6] addresses T5, Human NKG2A & CD94 with mouse IgG2a Fc tag (AcroBiosystems) (human, UniProt P26715 94-233; Q13241 32-179, limits assumed).
T5 construct: Bought soluble antigen of the Carterra assay; also called hNKG2A; not shown: mouse IgG2a Fc tag
In words: SPR (Carterra), antibody on chip, soluble antigen.

Assay [7] has as its target T6, Human PD-L1 with His tag (AcroBiosystems) (human, UniProt Q9NZQ7 19-238).
T6 construct: Bought protein; also called hPD-L1; not shown: His tag
In words: SPR (Carterra), antibody on chip, soluble antigen.

The next assay has as its target Cyno PD-L1 (cyno, UniProt G7PSE7 19-238). Description: SPR (Carterra), antibody on chip, soluble antigen.
The target of assay [8] is T3, NKG2A expressed on KHYG-1 cells …. In words: flow cytometry on KHYG-1 cells expressing endogenous NKG2A. As to the method: as §3, §4
The source holds these as a separate data set.

Assay [9] has as its target T7, cynomolgus NKG2A/CD94 (soluble antigen of the equilibrium assay) (cynomolgus, UniProt Q68VD2 94-233; Q68VD4 32-179, Biotinylated in the Octet assays of Example 2; state in the SPR equilibrium assay not seen.).
T7 construct: also called Cyno NKG2A/CD94; copies: 1 + 1
In words: SPR equilibrium response, Langmuir isotherm; antibody on chip, soluble antigen. As to the method:
In addition, a method using an equilibrium approach was performed. Kd determinations for cynomolgus NKG2A/CD94 were performed by measuring the signal response at equilibrium. […] The equilibrium response signals and corresponding antigen concentrations were then input into a Langmuir binding isotherm model, and the Kd was determined through nonlinear regression. Averages and standard deviations were calculated from 24 replicate chip locations for each molecule.

Assay [10] deals with T3, NKG2A expressed on KHYG-1 cells …. Description: flow cytometry competition; inhibition of HLA-E tetramer binding to KHYG-1 cells; first of the two EC50 values printed for P12×A2; the patent does not say what tells them apart. On the procedure: (§5) 15 μL per well of binder dilution at 2× concentration was plated in a 96-well plate (Costar 3897). 15 μL per well of cell suspension at 5×10⁶ cells per mL was added. Plates were placed at 4° C. for 30 minutes. Following the incubation, 5 μL per well of Fc block (BD Pharmingen Cat #564220) was added at a final concentration of 500 ng per well. Plates were placed at 4° C. for 10 minutes. […] Plates were placed at 4° C. for 1 hour. Following the incubation, 100 μL per well of PBS was added and plate was centrifuged at 400×g for 7 minutes. Supernatant was removed by flicking the plate. Cells were resuspended in 50 μL per well of PBS and analyzed by flow cytometry (Intellicyt).

Assay [11] has the same target. Description: flow cytometry competition; inhibition of HLA-E tetramer binding to KHYG-1 cells; second of the two EC50 values printed for P12×A2; the patent does not say what tells them apart. As to the method:
as §5

T5 sequence (P26715 94-233 limits assumed, chain 1 of 2): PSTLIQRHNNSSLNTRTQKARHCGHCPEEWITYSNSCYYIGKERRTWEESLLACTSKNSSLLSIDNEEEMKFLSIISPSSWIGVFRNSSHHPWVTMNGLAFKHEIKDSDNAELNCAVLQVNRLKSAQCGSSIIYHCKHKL
T5 sequence (Q13241 32-179 limits assumed, chain 2 of 2): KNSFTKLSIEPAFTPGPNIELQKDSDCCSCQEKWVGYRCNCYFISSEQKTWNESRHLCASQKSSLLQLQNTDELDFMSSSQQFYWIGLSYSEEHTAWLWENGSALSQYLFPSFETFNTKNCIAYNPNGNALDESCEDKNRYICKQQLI
Sequence of Cyno PD-L1 (G7PSE7 entry or part of it limits assumed): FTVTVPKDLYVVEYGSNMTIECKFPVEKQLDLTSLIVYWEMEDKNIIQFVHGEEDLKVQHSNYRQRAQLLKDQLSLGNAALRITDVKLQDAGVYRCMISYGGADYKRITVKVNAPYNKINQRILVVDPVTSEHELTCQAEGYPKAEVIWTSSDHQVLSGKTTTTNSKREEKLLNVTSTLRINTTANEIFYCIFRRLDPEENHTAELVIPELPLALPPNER
T6 sequence (Q9NZQ7 19-238 limits assumed): as the sequence (G7PSE7 entry or part of it limits assumed) above, with T33A, S34A, N62S, Q68R, R82Q, L173F, A185T, I192T, L215H counted along it
T7 sequence (NKG2A, as listed by the source limits assumed, chain 1 of 2): as the sequence (Q9MZJ3 other isoform, or with tags, fused parts or gaps, chain 1 of 2) above
T7 sequence (CD94, as listed by the source limits assumed, chain 2 of 2): as the sequence (Q9MZK9 32-179, chain 2 of 2) above
T1 sequence (P26717 other isoform, or with tags, fused parts or gaps, chain 1 of 2): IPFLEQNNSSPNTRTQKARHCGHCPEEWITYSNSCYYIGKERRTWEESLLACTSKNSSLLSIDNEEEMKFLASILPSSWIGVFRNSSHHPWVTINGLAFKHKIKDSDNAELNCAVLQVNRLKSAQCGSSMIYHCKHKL
T1 sequence (Q13241 32-179, chain 2 of 2): as the sequence (Q13241 32-179 limits assumed, chain 2 of 2) above

B1: Antibody Clone A11 (antibody, human IgG1, kappa, V domains shown)
VH: EVQLVESGGGLVQPGGSLRLSCAASGFTFSWYYIHWVRQAPGKGLEWVAVIDPISSYTYYADSVKGRFTISADTSKNTAYLQMNSLRAEDTAVYYCARGFDRAMDYWGQGTLVTVSS
VL: DIQMTQSPSSLSASVGDRVTITCRASKSVSSALAWYQQKPGKAPKLLIYVGSSRYSGVPSRFSGSRSGTDFTLTISSLQPEDFATYYCQQYYSSPYTFGQGTKVEIKR
Turning to B1, the binding result in assay [1] and in assay [2] was “no binding” each time. The half-maximal effective concentration (EC50) in assay [3] worked out at 4.35 nM.

B2: P12 × A2 (1 × 1 format) (bispecific antibody)
heavy 1: DIQMTQSPSSLSASVGDRVTITCRASQSVSSAVAWYQQKPGKAPKLLIYSASSLYSGVPSRFSGSRSGTDFTLTISSLQPEDFATYYCQQFMLEPITFGQGTKVEIKGQPREPQVCTLPPSRDELTKNQVSLTCLVRGFYPSDIAVEWESNGQPENNYKTTPPVLDSDGSFFLYSKLTVDKSRWQQGNVFSCSVMHEALHNHYTQKSLSLSPGKDKTHTCPPCPAPEAAGGPSVFLFPPKPKDTLMISRTPEVTCVVVDVSHEDPEVKFNWYVDGVEVHNAKTKPREEQYNSTYRVVSVLTVLHQDWLNGKEYKCKVSNKALKAPIEKTISKAKGQPREPQVYTLPPSREEMTKNQVSLSCAVKGFYPSDIAVEWESNGQPENNYKTTPPVLDSDGSFFLVSKLTVDKSRWQQGNVFSCSVMHEALHNHYTQKSLSLSPGK
light 1: EVQLVESGGGLVQPGGSLRLSCAASGFTFSSYYIHWVRQAPGKGLEWVATINSRGGFTLYADSVKGRFTISADTSKNTAYLQMNSLRAEDTAVYYCARGYTLTPVLDYWGQGTLVTVSSAQPREPQVYTLPPCRDWLTKNQVSLTCLVKGFYPSDIAVEWESNGQPENNYKTTPPVLDSDGSFFLYSKLTVDKSRWQQGNVFSCSVMHEALHNHYTQKSLSLSPGK
heavy 2: not shown
light 2: EVQLVESGGGLVQPGGSLRLSCAASGFTFSSYYIHWVRQAPGKGLEWVASYVPEDGYTDYADSVKGRFTISADTSKNTAYLQMNSLRAEDTAVYYCARSSDFIPWTSSGGMDYWGQGTLVTVSSASTKGPSVFPLAPSSKSTSGGTAALGCLVKDYFPEPVTVSWNSGALTSGVHTFPAVLQSSGLYSLSSVVTVPSSSLGTQTYICNVNHKPSNTKVDKKVEPKSC
notes: One PD-L1 site, one NKG2A site; also called P12×A2, sFc; P12 × A2 sFc
On to B2, for which the “IC50 of inhibiting PD-1/PD-L1 interaction in PD-L1+MDA-MB-231 cells (PD-1/PD-L1 Signaling Bioassay, chemiluminescent signal)” value with PD-L1 expressed on cells [4] amounted to 408 pM. Also, the EC50 worked out at 55.9 nM with PD-L1 expressed on cells [5], 4.66 nM in assay [8], 21 nM in [10] and 65.2 nM in assay [11]. Besides, the Kd came out at 0.21 nM in assay [6], 0.13 nM in assay [7], 0.1 nM in the assay with Cyno PD-L1 and 42 nM in assay [9]. Further, the off-rate constant (koff) in assay [6] was 8e-05 s⁻¹; in assay [7], 7e-05 s⁻¹; with Cyno PD-L1, 6e-05 s⁻¹. Also, the on-rate constant (kon) in assay [6] worked out at 360000 M⁻¹ s⁻¹; in [7], 530000 M⁻¹ s⁻¹; with Cyno PD-L1 it was 560000 M⁻¹ s⁻¹.

A word on the EC50: it is the concentration at which the effect is half-maximal. A word on the Kd: it is a measure of binding affinity in units of concentration. The low end stands for a tighter complex, the high end for a looser complex. The koff is a measure of how fast the partners let go of each other. Low values mean a long-lived complex, high ones a short-lived complex. Usually kon stands for the rate constant with which the complex forms. Read a high kon as faster complex formation.
